Here are results for 21 molecules from US20240327535A1 (EISAI R AND D MANAGEMENT, published 2024).

For this assay, the target named is T1, extracellular domain of human BCMA (human, UniProt Q02223 1-54).
T1 construct: amine-linked to Octet AR2G tips; also called hsBCMA; BCMA (human)
T1 sequence: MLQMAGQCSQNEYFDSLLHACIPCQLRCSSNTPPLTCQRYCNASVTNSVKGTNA
The experiment in a line: Octet BLI; Fab 200 nM. Background: Biolayer interferometry detects binding as a change in optical thickness at a sensor tip.

B1: AB200-R1H26-R2Vk1 (Fab, V domains shown)
VH: QVQLVQSGAEVKKPGSSVKVSCKASGGSFSNYWMHWVRQAPGQGLEWMGATYRIHSDTFYNQKFKGRVTITADKSTSTAYMELSSLRSEDTAVYYCARGAIYHGYDVLDNWGQGTLVTVSS
VL: DIQMTQSPSSLSASVGDRVTITCRASQSISSYLNWYQQKPGKAPKLLIYAASSLQSGVPSRFSGSGSGTDFTLTISSLQPEDFATYYCQQFRKLPWSFGQGTKLEIKR
Take B1: the affinity, expressed as Kd, was 2.04 nM.

B2: AB200-R1H26-R2Vk19 (Fab, V domains shown)
VH: QVQLVQSGAEVKKPGSSVKVSCKASGGSFSNYWMHWVRQAPGQGLEWMGATYRIHSDTFYNQKFKGRVTITADKSTSTAYMELSSLRSEDTAVYYCARGAIYHGYDVLDNWGQGTLVTVSS
VL: DIQMTQSPSSLSASVGDRVTITCRASQSISSYLNWYQQKPGKAPKLLIYATSNLQSGVPSRFSGSGSGTDFTLTISSLQPEDFATYYCQQYRRLPWSFGQGTKLEIKR
Take B2: the Kd – broadly, a measure of binding affinity in units of concentration – was found to be 1.62 nM.

B3: AB200-R1H26-R2Vk26 (Fab, V domains shown)
VH: QVQLVQSGAEVKKPGSSVKVSCKASGGSFSNYWMHWVRQAPGQGLEWMGATYRIHSDTFYNQKFKGRVTITADKSTSTAYMELSSLRSEDTAVYYCARGAIYHGYDVLDNWGQGTLVTVSS
VL: DIQMTQSPSSLSASVGDRVTITCRASQSISSYLNWYQQKPGKAPKLLIYATSNIQSGVPSRFSGSGSGTDFTLTISSLQPEDFATYYCQQFRRLPWTFGQGTKLEIKR
B3: binding was put at a Kd of 1.46 nM.

B4: AB200-R1H26-R2Vk24 (Fab, V domains shown)
VH: QVQLVQSGAEVKKPGSSVKVSCKASGGSFSNYWMHWVRQAPGQGLEWMGATYRIHSDTFYNQKFKGRVTITADKSTSTAYMELSSLRSEDTAVYYCARGAIYHGYDVLDNWGQGTLVTVSS
VL: DIQMTQSPSSLSASVGDRVTITCRASQSISSYLNWYQQKPGKAPKLLIYATSNIQSGVPSRFSGSGSGTDFTLTISSLQPEDFATYYCQQYRRLPWSFGQGTKLEIKR
For B4, the Kd came out at 1.62 nM.

B5: AB200-R1H26-R2Vk21 (Fab, V domains shown)
VH: QVQLVQSGAEVKKPGSSVKVSCKASGGSFSNYWMHWVRQAPGQGLEWMGATYRIHSDTFYNQKFKGRVTITADKSTSTAYMELSSLRSEDTAVYYCARGAIYHGYDVLDNWGQGTLVTVSS
VL: DIQMTQSPSSLSASVGDRVTITCRASQSISSYLNWYQQKPGKAPKLLIYATSNLQSGVPSRFSGSGSGTDFTLTISSLQPEDFATYYCQQFRRLPWTFGQGTKLEIKR
Molecule B5 had a Kd of 1.27 nM.

B6: AB200-R1H26-R2Vk13 (Fab, V domains shown)
VH: QVQLVQSGAEVKKPGSSVKVSCKASGGSFSNYWMHWVRQAPGQGLEWMGATYRIHSDTFYNQKFKGRVTITADKSTSTAYMELSSLRSEDTAVYYCARGAIYHGYDVLDNWGQGTLVTVSS
VL: DIQMTQSPSSLSASVGDRVTITCRASQSISSYLNWYQQKPGKAPKLLIYAASSLQSGVPSRFSGSGSGTDFTLTISSLQPEDFATYYCQQFRKIPWTFGQGTKLEIKR
B6 displayed a Kd of 3.02 nM.

B7: AB200-R1H26-R2Vk5 (Fab, V domains shown)
VH: QVQLVQSGAEVKKPGSSVKVSCKASGGSFSNYWMHWVRQAPGQGLEWMGATYRIHSDTFYNQKFKGRVTITADKSTSTAYMELSSLRSEDTAVYYCARGAIYHGYDVLDNWGQGTLVTVSS
VL: DIQMTQSPSSLSASVGDRVTITCRASQSISSYLNWYQQKPGKAPKLLIYATSNLQIGVPSRFSGSGSGTDFTLTISSLQPEDFATYYCQQFRKLPWSFGQGTKLEIKR
On to B7, for which the Kd is 1.29 nM.

B8: AB200-R1H26-R2Vk11 (Fab, V domains shown)
VH: QVQLVQSGAEVKKPGSSVKVSCKASGGSFSNYWMHWVRQAPGQGLEWMGATYRIHSDTFYNQKFKGRVTITADKSTSTAYMELSSLRSEDTAVYYCARGAIYHGYDVLDNWGQGTLVTVSS
VL: DIQMTQSPSSLSASVGDRVTITCRASQSISSYLNWYQQKPGKAPKLLIYAASSLQSGVPSRFSGSGSGTDFTLTISSLQPEDFATYYCQQFRRLPWTFGQGTKLEIKR
Take B8: binding was characterised by a dissociation constant (Kd) of 1.55 nM.

B9: AB200-R1H26-R2Vk7 (Fab, V domains shown)
VH: QVQLVQSGAEVKKPGSSVKVSCKASGGSFSNYWMHWVRQAPGQGLEWMGATYRIHSDTFYNQKFKGRVTITADKSTSTAYMELSSLRSEDTAVYYCARGAIYHGYDVLDNWGQGTLVTVSS
VL: DIQMTQSPSSLSASVGDRVTITCRASQSISSYINWYQQKPGKAPKLLIYATSNIQSGVPSRFSGSGSGTDFTLTISSLQPEDFATYYCQQFRKLPWSFGQGTKLEIKR
B9: the Kd is 2.17 nM.

B10: AB200-R1H26-R2Vk10 (Fab, V domains shown)
VH: QVQLVQSGAEVKKPGSSVKVSCKASGGSFSNYWMHWVRQAPGQGLEWMGATYRIHSDTFYNQKFKGRVTITADKSTSTAYMELSSLRSEDTAVYYCARGAIYHGYDVLDNWGQGTLVTVSS
VL: DIQMTQSPSSLSASVGDRVTITCRASQSISSYLNWYQQKPGKAPKLLIYAASSLQSGVPSRFSGSGSGTDFTLTISSLQPEDFATYYCQQYRRIPWTFGQGTKLEIKR
As for B10, the Kd came out at 3.23 nM.

B11: AB200-R1H26-R2Vk23 (Fab, V domains shown)
VH: QVQLVQSGAEVKKPGSSVKVSCKASGGSFSNYWMHWVRQAPGQGLEWMGATYRIHSDTFYNQKFKGRVTITADKSTSTAYMELSSLRSEDTAVYYCARGAIYHGYDVLDNWGQGTLVTVSS
VL: DIQMTQSPSSLSASVGDRVTITCRASQSISSYLNWYQQKPGKAPKLLIYATSNLQSGVPSRFSGSGSGTDFTLTISSLQPEDFATYYCQQFRKIPWTFGQGTKLEIKR
The molecule B11 returned a Kd of 2.28 nM.

B12: AB200-R1H26-R2Vk22 (Fab, V domains shown)
VH: QVQLVQSGAEVKKPGSSVKVSCKASGGSFSNYWMHWVRQAPGQGLEWMGATYRIHSDTFYNQKFKGRVTITADKSTSTAYMELSSLRSEDTAVYYCARGAIYHGYDVLDNWGQGTLVTVSS
VL: DIQMTQSPSSLSASVGDRVTITCRASQSISSYLNWYQQKPGKAPKLLIYATSNLQSGVPSRFSGSGSGTDFTLTISSLQPEDFATYYCQQYRKIPWSFGQGTKLEIKR
In the case of B12, the affinity, expressed as Kd, was 2.24 nM.

B13: AB200-R1H26-R2Vk20 (Fab, V domains shown)
VH: QVQLVQSGAEVKKPGSSVKVSCKASGGSFSNYWMHWVRQAPGQGLEWMGATYRIHSDTFYNQKFKGRVTITADKSTSTAYMELSSLRSEDTAVYYCARGAIYHGYDVLDNWGQGTLVTVSS
VL: DIQMTQSPSSLSASVGDRVTITCRASQSISSYLNWYQQKPGKAPKLLIYATSNLQSGVPSRFSGSGSGTDFTLTISSLQPEDFATYYCQQYRRIPWTFGQGTKLEIKR
Molecule B13 showed a Kd of 2.1 nM.

B14: AB200-R1H26-R2Vk27 (Fab, V domains shown)
VH: QVQLVQSGAEVKKPGSSVKVSCKASGGSFSNYWMHWVRQAPGQGLEWMGATYRIHSDTFYNQKFKGRVTITADKSTSTAYMELSSLRSEDTAVYYCARGAIYHGYDVLDNWGQGTLVTVSS
VL: DIQMTQSPSSLSASVGDRVTITCRASQSISSYLNWYQQKPGKAPKLLIYATSNIQSGVPSRFSGSGSGTDFTLTISSLQPEDFATYYCQQYRKIPWSFGQGTKLEIKR
On to B14, for which the Kd was 2.33 nM.

B15: AB200-R1H26-R2Vk3 (Fab, V domains shown)
VH: QVQLVQSGAEVKKPGSSVKVSCKASGGSFSNYWMHWVRQAPGQGLEWMGATYRIHSDTFYNQKFKGRVTITADKSTSTAYMELSSLRSEDTAVYYCARGAIYHGYDVLDNWGQGTLVTVSS
VL: DIQMTQSPSSLSASVGDRVTITCRASQSISSYLNWYQQKPGKAPKLLIYATSNLQSGVPSRFSGSGSGTDFTLTISSLQPEDFATYYCQQFRKLPWSFGQGTKLEIKR
With B15, the affinity, expressed as Kd, was 1.62 nM.

B16: AB200-R1H26-R2Vk12 (Fab, V domains shown)
VH: QVQLVQSGAEVKKPGSSVKVSCKASGGSFSNYWMHWVRQAPGQGLEWMGATYRIHSDTFYNQKFKGRVTITADKSTSTAYMELSSLRSEDTAVYYCARGAIYHGYDVLDNWGQGTLVTVSS
VL: DIQMTQSPSSLSASVGDRVTITCRASQSISSYLNWYQQKPGKAPKLLIYAASSLQSGVPSRFSGSGSGTDFTLTISSLQPEDFATYYCQQYRKIPWSFGQGTKLEIKR
B16 registered a Kd of 3.72 nM.

B17: AB200-R1H26-R2Vk9 (Fab, V domains shown)
VH: QVQLVQSGAEVKKPGSSVKVSCKASGGSFSNYWMHWVRQAPGQGLEWMGATYRIHSDTFYNQKFKGRVTITADKSTSTAYMELSSLRSEDTAVYYCARGAIYHGYDVLDNWGQGTLVTVSS
VL: DIQMTQSPSSLSASVGDRVTITCRASQSISSYLNWYQQKPGKAPKLLIYAASSLQSGVPSRFSGSGSGTDFTLTISSLQPEDFATYYCQQYRRLPWSFGQGTKLEIKR
With B17, the Kd stood at 2.35 nM.

B18: AB200-R1H26-R2Vk4 (Fab, V domains shown)
VH: QVQLVQSGAEVKKPGSSVKVSCKASGGSFSNYWMHWVRQAPGQGLEWMGATYRIHSDTFYNQKFKGRVTITADKSTSTAYMELSSLRSEDTAVYYCARGAIYHGYDVLDNWGQGTLVTVSS
VL: DIQMTQSPSSLSASVGDRVTITCRASQSISSYLNWYQQKPGKAPKLLIYATSNIQSGVPSRFSGSGSGTDFTLTISSLQPEDFATYYCQQFRKLPWSFGQGTKLEIKR
Consider B18, for which binding was put at a Kd of 1.7 nM.

B19: AB200-R1H26-R2Vk8 (Fab, V domains shown)
VH: QVQLVQSGAEVKKPGSSVKVSCKASGGSFSNYWMHWVRQAPGQGLEWMGATYRIHSDTFYNQKFKGRVTITADKSTSTAYMELSSLRSEDTAVYYCARGAIYHGYDVLDNWGQGTLVTVSS
VL: DIQMTQSPSSLSASVGDRVTITCRASQSISSYINWYQQKPGKAPKLLIYATSNLQIGVPSRFSGSGSGTDFTLTISSLQPEDFATYYCQQFRKLPWSFGQGTKLEIKR
B19: the Kd came out at 1.69 nM.

B20: AB200-R1H26-R2Vk6 (Fab, V domains shown)
VH: QVQLVQSGAEVKKPGSSVKVSCKASGGSFSNYWMHWVRQAPGQGLEWMGATYRIHSDTFYNQKFKGRVTITADKSTSTAYMELSSLRSEDTAVYYCARGAIYHGYDVLDNWGQGTLVTVSS
VL: DIQMTQSPSSLSASVGDRVTITCRASQSISSYINWYQQKPGKAPKLLIYATSNLQSGVPSRFSGSGSGTDFTLTISSLQPEDFATYYCQQFRKLPWSFGQGTKLEIKR
B20 gave a Kd of 2.08 nM.

B21: AB200-R1H26-R2Vk25 (Fab, V domains shown)
VH: QVQLVQSGAEVKKPGSSVKVSCKASGGSFSNYWMHWVRQAPGQGLEWMGATYRIHSDTFYNQKFKGRVTITADKSTSTAYMELSSLRSEDTAVYYCARGAIYHGYDVLDNWGQGTLVTVSS
VL: DIQMTQSPSSLSASVGDRVTITCRASQSISSYLNWYQQKPGKAPKLLIYATSNIQSGVPSRFSGSGSGTDFTLTISSLQPEDFATYYCQQYRRIPWTFGQGTKLEIKR
Molecule B21 had a Kd of 2.04 nM. This Kd and that of the molecule before are within 1.5-fold of each other.
